From the DeepSol protein solubility set

Experiment: soluble on expression in E. coli; label from the status in PepcDB or PDB records

Sequence | soluble on expression in E. coli
MKAVYPGSFDPITLGHVDIIKRALSIFDELVVLVTENPRKKCMFTLEERKKLIEEVLSDLDGVKVDVHHGLLVDYLKKHGIKVLVRGLRAVTDYEYELQMALANKKLYSDLETVFLIASEKFSFISSSLVKEVALYGGDVTEWVPPEVARALNEKLKEGKR | not soluble
MSAVPFPLLRLPNSALQKSLKEMRLVEQLSLSLLSENTMQLVRRFNRGRYFATITVVDSICVHLWTARCGQLFFKIKPDQSIRAVNILKSDSIATKFTMPKIPGFTVKKWLEHISHVFFSDTGATLRWMSSVRNIEETCEILKEVKIARLAINPSTVQDCQMRRLLPAIKELIVSDSTVHGSIVHWNLEKLSVFSTTMTLDDLLLSNCSDIAIGRNSLSHKNRNIFMRQWINGSNPRLQYFAMLMGFNGVQQLENTLFENIKYTETTVQGASTYKEFEIEGRDGRTAKIKLNTELTSRYFAMNVIF | not soluble
VEPDIRTGTIQDVQHVVILMQENRSFDHYFGHLNGVRGFNDPRALKRQDGKPVWYQNYKYEFSPYHWDTKVTSAQWVSSQNHEWSAFHAIWNQGRNDKWMAVQYPEAMGYFKRGDIPYYYALADAFTLCEAYHQSMMGPTNPNRLYHMSGRAAPSGDGKDVHIGNDMGDGTIGASGTVDWTTYPERLSAAGVDWRVYQEGGYRSSSLWYLYVDAYWKYRLQEQNNYDCNALAWFRNFKNAPRDSDLWQRAMLARGVDQLRKDVQENTLPQVSWIVAPYCYCEHPWWGPSFGEYYVTRVLEALTSNPEVWARTVFILNYDEGDGFYDHASAPVPPWKDGVGLSTVSTAGEIEVSSGLPIGLGHRVPLIAISPWSKGGKVSAEVFDHTSVLRFLERRFGVVEENISPWRRAVCGDLTSLFDFQGAGDTQVAPDLTNVPQSDARKEDAYWQQFYRPSPKYWSYEPKSLPGQEKGQRPTLAVPYQLHATLALDIAAGKLRLTLGNDGMSLPGNPQGHSAAVFQVQPREVGNPRFYTVTSYPVVQESGEELGRTLNDELDDLLDANGRYAFEVHGPNGFFREFHGNLHLAAQMARPEVSVTYQRNGNLQLNIRNLGRLPCSVTVTPNPAYTREGSRRYELEPNQAISEVWLLRSSQGWYDLSVTASNTEANYLRRLAGHVETGKPSRSDPLLDI | not soluble
VGDFNYYASANWSCEQSKVLYKDEQKVPYEYLRTTGKPKGAIFGLVAEGFFTSQDEITKSPVIEGFNNIQPGDIKYKDQNNDGVINDFDKVMIGGDKPLSYFGIDLGFEWRGLEFSMFWQGVYNKDVLMSDWNLLEGFQTQGQVYGQAYENMLDRWTPETAATATFPRLSAGGNKYNQGNGWGSSFWLRSGNYIRLKNVSLGYNLPDSFCRNYLGGARVKVFVSGQNLFTKAANELVDPEVSFGNYPLQRCISTGINVKF | not soluble
GKRKLATISTKGKVKDLTDTLVGSSIGRPYISGGFTASSEGYMAFTQGSSSRPADVAVINTRKKLVKLTQLNEDLLAHKNLGKVTEINYKSSFDDEPIQGWYVTPPNFDPKKKYPLILEIHGGPHLAYGPHFSAELQRFAAQGYVVFYDNHRGSSSYGERFAMLLKYKYSSKEDFADHNSGVDAMLGLGFIDEGNLFIAGGSAGGIATAYAIGLTDRFSAAVVVKPVINWLSKVLTADSGLGQIPTQFPGMPWEHVEHYWKRSPMSLVGNVTTPTMLMTGEEDLRTPMAQTEQFYQALKLRKIDTVLVKVPGSPHGIAGKPSRMITKIEHTLAWFEKYKT | not soluble
MAWMEVRGKRFEILVRPELAFRYKEKGDVDLEDVLWTDTIYRDVRKGLKASPEEVKKAFGTSDPRRVAEKILKEGEIQLTEEQRRRLLEAKRRQIISYIARNAIDPTTGRPIPEARIEAALEEVRFPINLWRDAESQAVEAVRLIARVMPIRLARALLEVKIPPPHSGRAYQALMRMGEVKKADWLPDGSLKAELEIPAGAQVEVTSRIQALARGAAEVKVKKVAAAAAAALEHHHHHH | soluble
GHMKGLTEKLMILSHQSIKNLLGKVILNYSEENVRENGYDLRICGDKYYELVQGAELPEKKATLREIEFKERAILSANHTYLFESCEEFNMPADLAVLITLKSTLARNGFLAPPTVIDAGYKGKVNVAITAVYNSSLKKGMATHHLIFLKLDKPTERLYNGKYQGGILI | soluble
MGSDKIHHHHHHVKTRFFCQSCGQESPRWLGKCPGCGEWNTLVEEVVERAAAKRTPLGVKATPLTEIQIREEERVSSGSQELNRVLGGGIVPGSFVLLGGEPGIGKSTLLLQTAGLLAKGMDVLYISGEESEKQIKLRAERLGIKESRLHILTETRLEVVRDVALAMGPGLLIVDSIQTMVLEELQAAAGSVSQVREGAAFLMRLAKEEEIPIFLVGHVTKEGAIAGPRVLEHIVDTVLYFEGDRHHVYRLLRAVKNRFGSTNEIGVFEMHEDGLVEVPNPSKVFLGENSATAPGSSVAVIVEGSRPLLVEIQALVTPTTYGPPRRTATGIDYNRILMLLAVLDKKVGLHLGAQDVFINIAGGIRIDEPGVDLACIAAIASSLGERPLKRYALVGEVGLTGEVRGISQIEKRVKEAVKLGFEGCIIPRINVSAVKVPGNFTVIAVKTVEEAVQVMFEQ | not soluble
MIVLVTGATAGFGECITRRFIQQGHKVIATGRRQERLQELKDELGDNLYIAQLDVRNRAAIEEMLASLPAEWCNIDILVNNAGLALGMEPAHKASVEDWETMIDTNNKGLVYMTRAVLPGMVERNHGHIINIGSTAGSWPYAGGNVYGATKAFVRQFSLNLRTDLHGTAVRVTDIEPGLVGGTEFSNVRFKGDDGKAEKTYQNTVALTPEDVSEAVWWVSTLPAHVNINTLEMMPVTQSYAGLNVHRQ | soluble
MGSDKIHHHHHHMSEALNVDIQEIAKFEKMAATWWDPDGEFKPLHQLNPLRLNYIDQTSGGLFGKKVLDVGCGGGILSESMARLGANVTGIDMGNEPLEVARLHALETGVSLNYERCTAEEHREVNREAYDVVTCMEMLEHVPDPLSVIAACCDMVKPGGYVFFSTINRNLRSYVETILGAEYLLKMLPVGTHDHGKFIRPSELIAMVDQTELLCKDATGVTYNPITGTFRYTSSVEVNYMIATVKPLE | not soluble
MTKTAFLFAGQGAQYLGMGRDFYDQYPIVKETIDRASQVLGYDLRYLIDTEEDKLNQTRYTQPAILATSVAIYRLLQEKGYQPDMVAGLSLGEYSALVASGALDFEDAVALVAKRGAYMEEAAPADSGKMVAVLNTPVEVIEEACQKASELGVVTPANYNTPAQIVIAGEVVAVDRAVELLQEAGAKRLIPLKVSGPFHTSLLEPASQKLAETLAQVSFSDFTCPLVGNTEAAVMQKEDIAQLLTRQVKEPVRFYESIGVMQEAGISNFIEIGPGKVLSGFVKKIDQTAHLAHVEDQASLVALLEKL | soluble
MGSDKIHHHHHHMDSEFANAVELSYECAPLLESLKEYSEKDIACFDVPGHVKNRGVAILNKYLGESLMKMDINSSPTMDNVSAPNGIIKNAQDLLAQAYMADEAFFITNGTTQAIHAMILSVIKPGEKVLLPRNIHKSVINALILCGGIPIFIQPEFDEKLGISLNITLEKVRTEIEKDCNIKALFFLNPTYYGVCADLESIIELCHKNNVLVLVDEAHGAHFPFHLDLPPSAISLGADMVAVSIHKTGGALTQSSALLLNRDNVSFEKVLQSINMLQSTSASYLLMASIDGARVNLVENGEKQLSKALNLSRYAKSKLNKIDGIKVLSTEILKQKGVKFIDETKLCINVKELNLTGFEVYDLLYKNFSIQVELGDSYNILALVSIGTNKSDIDRLVKALSIIAKVYRKESTLNEFNMVQINPIIKLNPREAFYAPKESVEINSCIDRICGESIMAYPPGIPIIAPGELITEEIMEYIIFLKNSNAYLTDVQDKNLDRILVIK | not soluble
MSLSRVFVIGAAGKVGQRLIKKLGDGGHEVIALHRKEEQSVLIKAAGALPLLANLVEMDAAALSSAMAGSDVVVFTAGAGGAGIELTNAIDGEGLKTSVAAAELAGVRRFLLVSAFPEAARGTDTSAGFENYMRVKKHADVCLASSELDWVILRPGTLVDSAGSGQVRAGLAIPYGDIPRDDVAAFLAALVDQPEISRQIIELTEGTTPVELAIKALGTREGHHHHHH | soluble
MDGHHVDARPVEPVQGERDGRAGGSGMSLIKSVRHWLRRHPTVATEPATPPARGAHRGQVDHVILFDGTCSSLEAGHETNVGLIFKLLREERRSVQRTIYYEPGLQWGGWLRIGDLVQGKGLNRQIRRAYGYLASHYQPGDRIFLFGYSRGAYAARSLAGVIDRVGLLRREEATERNVRLAWRHYEQGSIRPHARAFSRRHCHARVEIEMVGIFDTVKALGLRLPLLWRLSEDRHAFHSHKLGRTVRHGFHALALDETRTVFEPVLWDYPYHGQIVEQAWFRGGHGDIGGQLAGGRHGSRLLSNIPLVWMLERATHCGLQLPEGWRARHPCDVTAPMTSMYAGWGKIFLSRQRRPTLRCPTEYIHPTALRPEPRRRKWRLRWGGAPEGEPTQGLEHHHHHH | not soluble
MSLGDLEQKIIAMDLWHLALPVVSARDHGIGRVEGSCEIVVLRLVAEGGAEGFGEASPWAVFTGTPEASYAALDRYLRPLVIGRRVGDRVAIMDEAARAVAHCTEAKAALDSALLDLAGRISNLPVWALLGGKCRDTIPLSCSIANPDFDADIALMERLRADGVGLIKLKTGFRDHAFDIMRLELIARDFPEFRVRVDYNQGLEIDEAVPRVLDVAQFQPDFIEQPVRAHHFELMARLRGLTDVPLLADESVYGPEDMVRAAHEGICDGVSIKIMKSGGLTRAQTVARIAAAHGLMAYGGDMFEAGLAHLAGTHMIAATPEITLGCEFYQASYFLNEDILETPFRVEAGQVIVPDGPGLGARADPEKLEHYAVRRSGEGHHHHHH | soluble
MYQLTVFYDGTCPLCAKEMRALKQQDKNNVIKTIDIYSEVFSEYSNIDPKAANTVLHALNQKGELILGLDVTYLAWKLVGKGWLYAPLRWPGIKVIADWCYLHFAKNRYRVSYWLTGVSRCNKTSCSKLEHHHHHH | not soluble
MRLAFWLYEGTALHGVSRVTNSMKGVHTVYHAPQGDDYITATYTMLERTPEFPKLSISVVRGQDLARGTSRLPGTVEQVDKHYKPELIVVAPSCSTALLQEDLGQMARASGVDQSKIMVYAVNPFRVAENEAAEGLFTELVRRFAAEQPKTEKPSVNLLGFTSLGFHLRSNLTSLRRMLKTLGIEVNVVAPWGAGIDDLKKLPAAWVNIAPFREIGCQAAGYLKEKFGMPSITEAPLGVNATLRWLRAIIAEVNKIGAEKGMAPMAMPELRDFSLDGQSAPSSVPWFARTADMESFSNKRAFVFGDATQVVGVTKFLKDELGMKIIGAGTYLPKQADWVREQLEGYLPGELMVTDKFQEVSAFIEEEMPELVCGTQMERHSCRKLDVPCMVISAPTHIENHLLGYYPFFGFDGADVMADRVYTSAKLGLEKHLIDFFGDAGLEYEAEEPEAFTEPTMSGNGTVASVSSAEAPSEAAVVTATATGELSWTAEAEKMLGKVPFFVRKKVRKNTDNYAREIGEPVVTADVFRKAKEHLGGLEHHHHHH | not soluble
